± gives the uncertainty stated by the source.
Experiment: amyloid nucleation score (Sup35N fusion, yeast selection) (log enrichment); library NNK3; higher = more nucleation; inactive = no reads after selection
Method in brief: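 Sup35N was fused to peptides of 20 random codons and expressed in psi-negative yeast, which were induced with 100 μM copper sulfate for 24 hours and then grown on medium lacking adenine and uracil for 7 days at 30°C. Plasmid inserts from input and output were sequenced on Illumina. The nucleation score is the DiMSum log enrichment of output over input reads, centred on the mode score of non-aggregating sequences. Sequences with under 100 input reads were left out, and random libraries had three technical output replicates.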

Substance	amyloid nucleation score
SRRDYRLGSTVKLVVLGKSF	inactive
SRRKGQVVGCLQTMCCCKVE	inactive
SRRLVKESDDRGCCRGLFWD	inactive
SRSDKNHRNVANLNGVWCVT	inactive
SRSMDGSVCAFRMDMSSMD	inactive
SRVITDVHERVAVGGVVIWD	0.003 ± 0.31
SRVKDYCSFGLDFKCVCVFL	2.06 ± 0.094
SRVWMITRLFGTMA	inactive
SRYFYDADYLFGGHSVAGQI	inactive
SRYQMGYKCFMSWHHTGHFN	inactive
SRYSYVYTSESLYRASVSSV	inactive
SSAGYVVYIVMSRS	2.65 ± 0.065
SSCRDVWWKVVVVPTFTGGV	inactive
SSCRETTLEFAMGGTTVHLQ	inactive
SSDECV	inactive
SSDSYLVRESDKSSEWGTRN	inactive
SSFFMRIVCMFYLIRKVMKC	inactive
SSFYFCFMSCCYGLGFYLEI	inactive
SSGVEAGVSRMMLQ	inactive
SSIVEPQQLTGGPASGRFGE	inactive
SSLGNSLVMYVVCAWVN	0.273 ± 0.37
SSLGWFQVSHFRYWNRRCGL	inactive
SSLHARRYGLHLSLLSPARA	inactive

Substance	amyloid nucleation score
SSLLVRVRIYMGMMLLTIVR	inactive
SSLPMGFRSVI	inactive
SSLRLRDMSASENNRGSMPV	inactive
SSNLYMSSFWTSMMTWPTNY	inactive
SSNVPFVWCIPLMIAGIVGH	-0.348 ± 0.75
SSPRGCKSELPSGLGTYCRV	inactive
SSPRYVCWNF	inactive
SSRRPWIIGSMST	inactive
SSRTCK	inactive
SSSAF	inactive
SSSSIVLDGLTFWLINTVTT	0.598 ± 0.21
SSSTVYISVLVINHIDGSIR	2.42 ± 0.051
SSSYFIALWYFRTTRLSGGL	inactive
SSTLHRQIRRGVTVNELLRG	inactive
SSTNPGIH	inactive
SSTSCTHGYVGMFGFPSVVS	inactive
SSVGTAFLYYRKYGICADG	inactive
SSVSSMRRSHYETMMGRTVG	inactive
SSWNTTYMESSVPVGYLFRI	inactive
SSWPTTGRWE	inactive
SSYLNSVNSCLNDNVSHCCS	-0.343 ± 0.68
STLCSSCKGFDRMRYILVTR	0.274 ± 0.38
STLGTRSRDFLMIFSNRSTE	inactive

Substance	amyloid nucleation score
STMDRSVKVVGPSSRPEGSV	inactive
STPWHSRAISVALDRGDRWM	inactive
STRTWQRF	-0.014 ± 0.28
STSYSSAL	inactive
STTLWAIALGLYNTVYSLAN	inactive
STWYSFDFRYFLDTIVCHMF	1.68 ± 0.11
SVAFSWGMWCDSLDYFGSVS	inactive
SVAKNCWCPKCGMSSTFDSI	inactive
SVARWSENGSTKSQYSP	inactive
SVDDTLSVNGSSRSCGRGCR	-1.02 ± 1.5
SVDSREMHSVCCKSLLFGFD	inactive
SVELNTKLVRYEVLSRMYRA	inactive
SVESECRDMFSFKGFCVCVK	inactive
SVFKIV	inactive
SVFSFCLNYSYNCIDRCKFN	inactive
SVGFRYHVLRKSKWCVYIVE	inactive
SVHWSINWTGLERVSRTQRL	0.523 ± 0.24
SVIMGLTGDPGVALYVVTIM	inactive
SVLCMGLHEIQYIRRFCRHW	inactive
SVLCWFSVR	inactive
SVLGVSTYSLCSSVNCIFRF	2.74 ± 0.062
SVLHVLYCVGSECVYVSSSR	inactive
SVLWLVCMDCHPQKSVSCD	0.863 ± 0.25

Substance	amyloid nucleation score
SVMYVQNFPYLLSYWRSFIG	inactive
SVNSVTWLFVRMQYFLFISC	inactive
SVNWWTVLCVHCPGYKNLLI	0.465 ± 0.26
SVRSGLARVSRTGMG	inactive
SVSLLAFRDFALPDHTKHMT	inactive
SVTSHDPMACHLLVCSV	inactive
SVTWSHFGNWVRGAGLVMHR	0.259 ± 0.39
SVVIYWIWNCL	3.09 ± 0.068
SVVMVRSVYIERSVEPPAPG	-0.607 ± 1.4
SVVPQDDILLNCGLEQAILG	inactive
SVVSCMWMWHLVRYKH	-0.509 ± 1.8
SVYNSYWKVQYRVVMS	0.506 ± 0.21
SVYTGISLSKFHGSPLVRV	-0.408 ± 1.2
SWCQGNCGMLLAHRSYKRAY	-0.48 ± 0.55
SWDVGGLYCKINGPIMLSLD	inactive
SWFGLAIRSV	inactive
SWFGYSVIDAKYGDIRTPVK	inactive
SWFSVMGNVFRMHFERRYSV	inactive
SWGPLINLRFQLLARCTPGL	inactive
SWHDINVAFADSFIDSKETC	inactive
SWIRRRPAVRLDRRMPRLAF	inactive
SWRKCPNLPSCKTIPNAWVL	inactive
SWSFDWFQSIVVGYLTCALA	inactive

Substance	amyloid nucleation score
SWTQVKRYSRSTIAILAFHT	inactive
SWVHVSTFWYVAFGFEKSAG	inactive
SWWVTGIALEHGSGLTVQVH	inactive
SYAANGVWRSYDLCYQCQKV	-0.712 ± 1.1
SYCVRWNRIVDFVGSCRDHG	1.11 ± 0.11
SYFNRYRCSSCHKPGYDHTW	inactive
SYGLKISLSHTFRSGRGMCG	inactive
SYKPLVMWLMSGVSASGLMC	inactive
SYLCSGWDRSWAGISCEHSE	inactive
SYLFYMHSSVLGSLMGQRDH	inactive
SYLKRGKSVAIQLTYGS	0.405 ± 0.67
SYLSHNFNGECCTSLLMDNL	inactive
SYMVKM	inactive
SYMWPMSWQET	inactive
SYRIIEWCSLGKDNLDIRTG	inactive
SYRLCCSMIGFSTGGRSHVE	inactive
SYSADLKLMIWSCLNLVVFQ	inactive
SYSHRVVLRDTRTRQAKPRA	inactive
SYVFTR	inactive
SYVLLHHLLVMSWVRV	inactive
SYVNIFHDGIIMNSYVAWGH	inactive
SYVPSTMIRMIWIMAFHRGN	-0.024 ± 0.43
